By Km is commonly meant the concentration of substrate that gives half-maximal velocity.

The values below come from paper PMC12267109, “The enzyme kinetics of branched‐chain fatty acid synthesis of metazoan fatty acid synthase” (Protein Science : A Publication of the Protein Society, 2025).

The target in data set [1] is KS-MAT^S581A didomain of murine FAS (functional MAT knockout) (murine).
Data set [2] concerns CC(=O)SCCNC(=O)CCNC(=O)[C@H](O)C(C)(C)COP(=O)(O)OP(=O)(O)OC[C@H]1O[C@@H](n2cnc3c(N)ncnc32)[C@H](O)[C@@H]1OP(=O)(O)O. The experiment in a line: purified protein. The conditions noted are these: NADPH substrates likely compete in the malonyl-acetyl transferase (MAT) binding pocket.

For the substance “decanoyl-acyl carrier protein (ACP) (domain or fragment)”, the Inhibition constant K i (substrate inhibition on titration of decanoyl-ACP at constant metmal-ACP; KS elongation activity by the enzyme-coupled MabA assay, apparent constant) in data set [1] was 270 µM.

As for “metazoan fatty acid synthase (mFAS), murine FAS (Mus musculus)”, the Km in data set [2] was 69 ± 12 µM.
